Experiment [1] has as its target T1, recombinant SARS-CoV-2 RBD with C-terminal AviTag (SARS-CoV-2, UniProt P0DTC2 319-541).
The target of experiment [2] is T1, recombinant SARS-CoV-2 RBD with …. As to the kind of experiment: ELISA, competition with coated ACE2-Fc for RBD [Cont. 7].
Experiment [3] shares this target. The experiment is described as follows: BLI, biotinylated RBD on streptavidin biosensors. For orientation: Biolayer interferometry detects binding as a change in optical thickness at a sensor tip.
Experiment [4] addresses SARS-COV-2 Wuhan Reference RBD (SARS-CoV-2, UniProt P0DTC2 319-541). As to the kind of experiment: ELISA, RBD coated. For orientation: ELISA stands for enzyme-linked immunosorbent assay.
Experiment [5] has as its target T1, recombinant SARS-CoV-2 RBD with …. The source holds these as a separate data set.
Experiment [6] has the same target. The experiment is described as follows: ELISA, competition with coated ACE2-Fc for RBD.
Experiment [7] shares this target. This is another data set of the same source.

Where a chain is given by its changes, count along the chain named. In names and notes the source's numbering stands. Read-outs that look alike come from different tables or passages of the source.

Consider 22 molecules from US20240150440A1 (LUMEN BIOSCIENCE, published 2024).

B1: MBP-5HVZ-R2E-D2-H6 (VHH, not shown: large carriers; small tags and cut ends)
VHH: QVQLVESGGGLVQPGGSLRLSCAASGHQLSTNATHWFRQAPGKNREFVASIGSGSSSYYADSVKGRFTISRDNAKNTVYLQMNSLKPEDTAVYYCTALGGDELDGMTYDYWGQGTQVTVSS
For orientation: IC50 means the point on the concentration scale where inhibition reaches its midpoint. As usually defined, the Kd is the concentration at which binding is half-saturated. Turning to B1, in experiment [1], the IC50 turned out to be 6.8 nM and the Kd was found to be 19.1 nM.

B2: PP911 MBP-5HVZ-S2b-F7-H6 (VHH)
VHH: QVQLVESGGGLVQPGGSLRLSCAASGSTLSNNAMHWFRQAPGKAREFVAAIGSSDSTDYKDSVKGRFTISRDNAKNTVYLQMNSLKPEDTAVYYCTALLDSGPGEYNYWGQGTQVTVSS
notes: Form: Dimer
One may read the EC50 as the concentration needed to bring the measured effect to its halfway point. Lower therefore signals greater potency. Consider B2, for which the IC50 in experiment [2] turned out to be 43.6 nM. For the same molecule, the Kd in experiment [3] was 44.3 nM. In experiment [4], this molecule returned an EC50 of 2.36 nM.

B3: PP916 MBP-5HVZ-S3b-A8-H6 (VHH)
VHH: QVQLVESGGGLVQPGGSLRLSCAASGSIISRVKVHWFRQAPGKSREWVAGIDSGTASYYSDSVKGRFTISRDNAKNTVYLQMNSLKPEDTAVYYCAAENRGYGVDWGQGTQVTVSS
notes: Form: Dimer
Regarding B3, in experiment [2], the IC50 is 2 nM. Besides, the dissociation constant (Kd) in experiment [3] amounted to 12.1 nM. Also, the EC50 in experiment [4] is 1.19 nM.

B4: MBP-5HVZ-R5D-G6-H6 (VHH, not shown: large carriers; small tags and cut ends)
VHH: QVQLVESGGGLVQPGGSLRLSCAASGRILAANIVHWYRQAPGKNREGVAGITSGGSTYYADSVKGRFTISRDNAKNTVYLQMNSLKPEDTAVYYCAAKPLGSPDDFDYWGQGTQVTVSS
Regarding B4, in experiment [5], the IC50 was determined as 3.2 nM and the Kd came to 31.3 nM.

B5: PP909 MBP-5HVZ-S2b-A7-H6 (VHH)
VHH: QVQLVESGGGLVQPGGSLRLSCAASGSSDSWNALHWFRQAPGKEREFVAGISSAGSGYYADSVKGRFTISRDNAKNTVYLQMNSLKPEDTAVYYCNGYEHTTGYDYWGQGTQVTVSS
notes: Form: Dimer
As for B5, the IC50 in experiment [2] was determined as 5.9 nM. For the same molecule, the Kd in experiment [3] worked out at 22.5 nM. This molecule also displayed an EC50 in experiment [4] of 0.62 nM.

B6: PP1143 MBP-5HVZ-PAPA-R2b-D5-H6 (VHH)
VHH: QVQLVESGGGLVQPGGSLRLSCAASGYADEINMVHWYRQAPGKGREFVAAIASGGSTFYADSVKGRFTISRDNAKNTVYLQMNSLKPEDTAVYYCAAIPRPSLSYAHDYAYWGQGTQVTVSS
notes: Form: Dimer
Turning to B6, the IC50 in experiment [6] stood at 8.4 nM.

B7: PP1155 MPB-scTRP-PAPA-R2b-D5-H6 (VHH)
VHH: B6 VHH
notes: Form: Trimer
With B7, the IC50 in experiment [6] came to 46.5 nM.

B8: PP1131 MBP-4B0F-PAPA-R2b-D5-H6 (VHH)
VHH: B6 VHH
notes: Form: Heptamer
In the case of B8, the IC50 in experiment [6] was 14.5 nM.

B9: PP1176 MBP-5HVZ-PAPA-R2a-F3-H6 (VHH)
VHH: QVQLVESGGGLVQPGGSLRLSCAASGSITSINWMHWFRQAPGKDREGVASISQTGRGSYADSVKGRFTISRDNAKNTVYLQMNSLKPEDTAVYYCAAASRTGTPYNYWGQGTQVTVSS
notes: Form: Dimer
Turning to B9, the IC50 in experiment [6] was found to be 10.4 nM. The same molecule showed an EC50 in experiment [4] of 0.29 nM.

B10: PP1177 MPB-scTRP-PAPA-R2a-F3-H6 (VHH)
VHH: B9 VHH
notes: Form: Trimer
For B10, the IC50 in experiment [6] was 83.6 nM.

B11: PP910 MBP-5HVZ-S2b-C10-H6 (VHH)
VHH: QVQLVESGGGLVQPGGSLRLSCAASGSAFSLNYMAWFRQAPGKQREGVAIIGSGGSSDYADSVKGRFTISRDNAKNTVYLQMNSLKPEDTAVYYCAAQPNGSPDDFDYWGQGTQVTVSS
notes: Form: Dimer
As to B11, in experiment [2], the IC50 was 405 nM. Also, the Kd in experiment [3] stood at 54 nM.

B12: PP915 MBP-5HVZ-S3b-A7-H6 (VHH)
VHH: QVQLVESGGGLVQPGGSLRLSCAASGSIASINAIHWVRQAPGKQREEVAAITSGGSTGYADSVKGRFTISRDNAKNTVYLQMNSLKPEDTAVYYCAAQPGQSYAVWGQGTQVTVSS
notes: Form: Dimer
In the case of B12, in experiment [3], the Kd was 2.63 nM. The same molecule yielded an EC50 in experiment [4] of 1.05 nM.

B13: MBP-R2C-G6-H6 (VHH, not shown: large carriers; small tags and cut ends)
VHH: QVQLVESGGGLVQPGGSLRLSCAASGSIYKYSDVHWFRQAPGKAREAVALLTGAGTTIYGDSVKGRFTISRDNAKNTVYLQMNSLKPEDTAVYYCAAGQGFKATRTFDSWGQGTQVTVSS
On to B13, for which the Kd in experiment [1] was roughly 3900 nM.

B14: MBp-5HVZ-R2C-B3-H6 (VHH, not shown: large carriers; small tags and cut ends)
VHH: QVQLVESGGGLVQPGGSLRLSCAASGTYASYETIAWYRQAPGKQREKVARITGAGSSFYADSVKGRFTISRDNAKNTVYLQMNSLKPEDTAVYYCNADSIPPALRAANTGYWGQGTQVTVSS
Turning to B14, in experiment [7], the IC50 came out at 1.4 nM and the Kd came to 33 nM.

B15: MBP-5HVZ-R5E-G2-H6 (VHH, not shown: large carriers; small tags and cut ends)
VHH: QVQLVESGGGLVQPGGSLRLSCAASGTIKSINAMHWFRQAPGKAREFVASIGSNGAKSYSDSVKGRFTISRDNAKNTVYLQMNSLKPEDTAVYYCTALITVAESDDYDYWGQGTQVTVSS
On to B15, for which the Kd in experiment [5] was determined as 3.14 nM.

B16: PP908 MBP-5HVZ-S2a-C4-H6 (VHH)
VHH: QVQLVESGGGLVQPGGSLRLSCAASGFSESINATAWFRQAPGKQREGVAGLDGGGSDYYSDSVKGRFTISRDNAKNTVYLQMNSLKPEDTAVYYCAAQLTSSFRGYDFTPSNYDYWGQGTQVTVSS
notes: Form: Dimer
Consider B16, for which the IC50 in experiment [2] is 13.1 nM. In addition, the Kd in experiment [3] came out at 219 nM. Moreover, the EC50 in experiment [4] was 1.59 nM.

B17: PP914 MBP-5HVZ-S3a-H1-H6 (VHH)
VHH: QVQLVESGGGLVQPGGSLRLSCAASGGIYSPYSMHWFRQAPGKAREWVAGIVGGGGTTYSDSVKGRFTISRDNAKNTVYLQMNSLKPEDTAVYYCNANYQEYDEYDYWGQGTQVTVSS
notes: Form: Dimer
On to B17, for which the IC50 in experiment [2] is 4.3 nM. Further, the concentration for a half-maximal effect (EC50) in experiment [4] is 3.24 nM.

B18: MBP-R2C-F6-H6 (VHH, not shown: large carriers; small tags and cut ends)
VHH: QVQLVESGGGLVQPGGSLRLSCAASGRILAANIVHWYRQAPGKEREGVAGITTGGSNYYSDSVKGRFTISRDNAKNTVYLQMNSLKPEDTAVYYCNALGLGSASGSYESWGQGTQVTVSS
In the case of B18, in experiment [7], the Kd was roughly 3600 nM.

B19: PP907 MBP-5HVZ-S1b-E11-H6 (VHH)
VHH: QVQLVESGGGLVQPGGSLRLSCAASGSYASIASMHWFRQAPGKEREFVAGVTSGGSTNYGDSVKGRFTISRDNAKNTVYLQMNSLKPEDTAVYYCNALAGANYESQWEEYNYWGQGTQVTVSS
notes: Form: Dimer
For B19, the IC50 in experiment [2] stood at 15.9 nM. Further, the EC50 in experiment [4] amounted to 3 nM.

B20: MBP-5HVZ-R2D-A6-H6 (VHH, not shown: large carriers; small tags and cut ends)
VHH: B19 VHH with Y28G, A32G, S33A, E44G, F47W, G50S, V51I, G54A, S56N, N58Y
Take B20: in experiment [1], the IC50 was determined as 6.3 nM and the Kd amounted to 19.6 nM.

B21: PP913 MBP-5HVZ-S3a-C5-H6 (VHH)
VHH: QVQLVESGGGLVQPGGSLRLSCAASGSIKNTNAMHWFRQAPGKDREWVAGITSGGNSNYGDSVKGRFTISRDNAKNTVYLQMNSLKPEDTAVYYCAAFGYRYDQDYTYDYWGQGTQVTVSS
notes: Form: Dimer
With B21, the IC50 in experiment [2] is 2.8 nM. The Kd in experiment [3] was found to be 1.42 nM. The molecule also showed an EC50 in experiment [4] of 1.53 nM.

B22: MBP-5HVZ-R5D-F3-H6 (VHH, not shown: large carriers; small tags and cut ends)
VHH: QVQLVESGGGLVQPGGSLRLSCAASGSQLSINYVHWFRQAPGKQREFVAAITITGSSYYADSVKGRFTISRDNAKNTVYLQMNSLKPEDTAVYYCNTVDRTDNYGYDYWGQGTQVTVSS
For B22, in experiment [5], the IC50 was determined as 29.3 nM.
